# Reference: patent US20250243290A1
# “And” between values parts separate entries of the source, which are not always exact repeats. Equal entries are not always repeated. Where two headings read alike, the source gives them in different places.
# Columns and labels:
# LS2…2RP = assay: peptide-array ELISA
# [1] = target: CGSR2…; assay: peptide-array ELISA [Con't]
# …2TSTSPTRC = assay: peptide-array ELISA [Con't]
# [2] = target: …2KP2…2…; assay: peptide-array ELISA [Con't]
# [3] = target: SCGSR2…; assay: peptide-array ELISA [Con't]
# Sequence of SCGSR2… (peptide, as listed by the source): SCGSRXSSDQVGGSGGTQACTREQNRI
# [4] = target: EGCRL2…2…; assay: peptide-array ELISA [Con't]
# QNRI2…2RL = assay: peptide-array ELISA [Con't]
# [5] = target: …2…; assay: peptide-array ELISA [Con't]
# E2LSCGSR2…2T2 = assay: peptide-array ELISA [Con't]
# ALSKQEG2…2APGTFSN = assay: peptide-array ELISA [Con't]
# …2RLCQA2TREQNRI2T2RPC = assay: peptide-array ELISA [Con't]
# CDQVETQA2…2TREQNRI2T2RPC = assay: peptide-array ELISA [Con't]
# [6] = target: CGWY2ALSKQEG2RL2CNASMDAV2TSTSPTRC; assay: peptide-array ELISA [Con't]
# …2…2TSTSPTRC = assay: peptide-array ELISA [Con't]
# …2SK2SPGQ = assay: peptide-array ELISA [Con't]
# [7] = target: …2KCAPLRK2…; assay: peptide-array ELISA [Con't]
# CLSKQEG2RL2…22SK2C = assay: peptide-array ELISA [Con't]
# CAPLRK2…2APGTFSN = assay: peptide-array ELISA [Con't]
# …2RPG = assay: peptide-array ELISA [Con't]
# …2…2RPG = assay: peptide-array ELISA [Con't]
# PE2LSCGSR2…2 = assay: peptide-array ELISA [Con't]
# [8] = target: KQEGCRL2…; assay: peptide-array ELISA [Con't]
# Sequence of KQEGCRL2… (peptide, as listed by the source): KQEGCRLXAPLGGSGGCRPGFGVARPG
# [9] = target: CQI2…2…; assay: peptide-array ELISA [Con't]
# NRI2…2RL = assay: peptide-array ELISA [Con't]
# E2LS2…2RPG = assay: peptide-array ELISA [Con't]
# NWVPE2…2T = assay: peptide-array ELISA [Con't]
# …2…2R = assay: peptide-array ELISA [Con't]
# [10] = target: EGCRL2…; assay: peptide-array ELISA [Con't]
# Sequence of EGCRL2… (peptide, as listed by the source): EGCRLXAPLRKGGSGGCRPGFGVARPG
# VPE2LS2…2RPG = assay: peptide-array ELISA [Con't]
# [11] = target: WY2…; assay: peptide-array ELISA [Con't]
# Sequence of WY2… (peptide, as listed by the source): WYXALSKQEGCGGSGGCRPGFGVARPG
# LS2…2RPGW = assay: peptide-array ELISA [Con't]
# [12] = target: WY2…2…; assay: peptide-array ELISA [Con't]
# [13] = target: …2…; assay: peptide-array ELISA [Con't]; remark: listed apart in the source
# [14] = target: WNWVPE2…; assay: peptide-array ELISA [Con't]
# Sequence of WNWVPE2… (peptide, as listed by the source): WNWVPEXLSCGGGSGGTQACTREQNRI
# WVPE2…2 = assay: peptide-array ELISA [Con't]
# [15] = target: SKQEGCRL2…; assay: peptide-array ELISA [Con't]
# Sequence of SKQEGCRL2… (peptide, as listed by the source): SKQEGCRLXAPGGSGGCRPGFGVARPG
# [16] = target: PE2LS2…2…; assay: peptide-array ELISA [Con't]
# WVPE2…2T2 = assay: peptide-array ELISA [Con't]
# PE2LS2…2RPGW = assay: peptide-array ELISA [Con't]
# E2LS2…2TREQNRIC = assay: peptide-array ELISA [Con't]
# RLCAPLRK2…2APGTFSN = assay: peptide-array ELISA [Con't]
# CG2RL2APLRK2…2TSTSPTRC = assay: peptide-array ELISA [Con't]
# LWNWVPE2…2T2 = assay: peptide-array ELISA [Con't]
# [17] = target: 2…2…; assay: peptide-array ELISA [Con't]
# …2RP = assay: peptide-array ELISA [Con't]
# Sequence of …2RP (peptide, as listed by the source): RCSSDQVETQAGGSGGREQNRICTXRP
# [18] = target: TSDVV2…; assay: peptide-array ELISA [Con't]
# 2LS2…2TREQNRIC = assay: peptide-array ELISA [Con't]
# WNWVPE2…2T = assay: peptide-array ELISA [Con't]
# [19] = target: 2…; assay: peptide-array ELISA [Con't]
# Sequence of 2… (peptide, as listed by the source): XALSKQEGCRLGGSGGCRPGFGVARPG
# WVPE2…2T = assay: peptide-array ELISA [Con't]
# VPE2LSCGSR2…2T = assay: peptide-array ELISA [Con't]
# …2RPGW = assay: peptide-array ELISA [Con't]
# Sequence of …2RPGW (peptide, as listed by the source): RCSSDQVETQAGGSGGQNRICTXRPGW
# [20] = target: VPE2LS2…2…; assay: peptide-array ELISA [Con't]
# 2LS2…2RP = assay: peptide-array ELISA [Con't]
# Sequence of CGSR2… (peptide, as listed by the source): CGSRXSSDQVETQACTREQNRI
# Sequence of …2TSTSPTRC (peptide, as listed by the source): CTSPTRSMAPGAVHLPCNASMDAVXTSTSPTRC
substance,measurement,setting,value
agonistic TNFR2 antibody MR2-1,Raw luminescence data,LS2…2RP,584
same,Raw luminescence data,[1],153
same,Raw luminescence data,…2TSTSPTRC,154
same,Raw luminescence data,[2],150
same,Raw luminescence data,[3],155
same,Raw luminescence data,[4],155
same,Raw luminescence data,QNRI2…2RL,151
same,Raw luminescence data,[5],155
same,Raw luminescence data,E2LSCGSR2…2T2,153
same,Raw luminescence data,ALSKQEG2…2APGTFSN,151
same,Raw luminescence data,…2RLCQA2TREQNRI2T2RPC,150
same,Raw luminescence data,CDQVETQA2…2TREQNRI2T2RPC,154
same,Raw luminescence data,[6],156
same,Raw luminescence data,…2…2TSTSPTRC,156
same,Raw luminescence data,…2SK2SPGQ,156 and 153
same,Raw luminescence data,[7],151
same,Raw luminescence data,CLSKQEG2RL2…22SK2C,156
same,Raw luminescence data,CAPLRK2…2APGTFSN,293
same,Raw luminescence data,…2RPG,341 and 293
same,Raw luminescence data,…2…2RPG,304
same,Raw luminescence data,PE2LSCGSR2…2,312
same,Raw luminescence data,[8],352
same,Raw luminescence data,[9],286
same,Raw luminescence data,NRI2…2RL,296
same,Raw luminescence data,E2LS2…2RPG,314
same,Raw luminescence data,NWVPE2…2T,283
same,Raw luminescence data,…2…2R,299
same,Raw luminescence data,[10],359
same,Raw luminescence data,VPE2LS2…2RPG,295
same,Raw luminescence data,[11],344
same,Raw luminescence data,LS2…2RPGW,299
same,Raw luminescence data,[12],287
same,Raw luminescence data,[13],342 and 337
same,Raw luminescence data,[14],291
same,Raw luminescence data,WVPE2…2,317
same,Raw luminescence data,[15],288
same,Raw luminescence data,[16],317
same,Raw luminescence data,WVPE2…2T2,287
same,Raw luminescence data,PE2LS2…2RPGW,305
same,Raw luminescence data,E2LS2…2TREQNRIC,299
same,Raw luminescence data,RLCAPLRK2…2APGTFSN,320
same,Raw luminescence data,CG2RL2APLRK2…2TSTSPTRC,287
same,Raw luminescence data,LWNWVPE2…2T2,353
same,Raw luminescence data,[17],299
same,Raw luminescence data,…2RP,324
same,Raw luminescence data,[18],323
same,Raw luminescence data,2LS2…2TREQNRIC,288
same,Raw luminescence data,WNWVPE2…2T,323
same,Raw luminescence data,[19],351
same,Raw luminescence data,WVPE2…2T,312
same,Raw luminescence data,VPE2LSCGSR2…2T,292
same,Raw luminescence data,…2RPGW,308
same,Raw luminescence data,[20],301
same,Raw luminescence data,2LS2…2RP,362
